Data set [1] addresses hematopoietic PGD Synthase (H-PGDS) (Homo sapiens, UniProt O60760). The experiment in a line: Inhibition of hematopoietic PGD synthase enzyme activity ([1-14C]PGH2 to PGD2, thin layer chromatography). To be noted: 3 to 300 µM; PGH2 40 µM, 0.1 mM GSH, 25°C, 30 seconds. It is filed as biochemical. Here is the method: In the measurement of hematopoietic PGD Synthase (H-PGDS), [1-^14C] PGH2 (40µM) as substrate is reacted in the presence of 0.1 M Tris-HCl (pH 8.0) and 0.1 mM GSH (reduced glutathione) at 25°C for 30 seconds.
After the completion of the reaction, the reaction liquid was subjected to thin layer chromatography to isolate and quantify PGD2 to calculate enzyme activity.

For data set [2], the system named is human cerebellum medulloblast (TE671) expressing L-PGDS. Put plainly: Inhibition of A23187-stimulated PGD2 production from cells expressing L-PGDS (EIA). It is filed as cell-based. To be noted: TE-671 cells, A23187 5 µM, compound added 15 minutes before stimulation, medium recovered 15 minutes after. As to the method:
TE-671 is seeded on microplate at the density of 1×10^7. The cells were stimulated by A231875 (5 µ M) to cause PGD2 production. […] The culture medium was recovered 15 minutes after A23187 stimulation to quantify the PGD2 concentration in the culture medium by enzyme immunoassay (EIA).

The target of another data set is H-PGDS (Homo sapiens, UniProt O60760). The experiment in a line: Affinity of H-PGDS to PGD2. It is filed as binding.
For data set [3], the target named is T1, L-PGDS mutant Cys^89,186Ala (Mus musculus, UniProt O09114, C186A/C89A).
T1 construct: GST (N, cleaved yes); made in house; host or cells: Escherichia coli DH5α
T1 sequence (O09114 25-189 C89A/C186A): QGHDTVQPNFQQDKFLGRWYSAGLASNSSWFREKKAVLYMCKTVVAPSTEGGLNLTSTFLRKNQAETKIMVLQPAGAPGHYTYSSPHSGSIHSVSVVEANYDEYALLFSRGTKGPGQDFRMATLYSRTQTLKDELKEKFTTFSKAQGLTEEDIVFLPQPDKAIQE
Put plainly: Binding of prostaglandins to L-PGDS by surface plasmon resonance (BiaCore 2000). The note with it: for binding to L-PGDS (in words): 10 µM (Figure 7). As to the method: L-PGDS can act as a PGD2 transporter protein. […] That is, L-PGDS act as a PGD2 synthesis enzyme coupled with COX in cells and thereafter as an extracellular transporter of PGD2.
The binding of PGD2, PGE2 or PGF2α to L-PGDS was analyzed with BiaCore 2000 system (BiaCore, Uppsala, Sweden) using the surface plasmon resonance method. L-PGDS mutant Cys^89,186Ala was immobilized on CM5 sensor chip (BIAcore AB) coated with carboxymethyldextran. Binding assay was carried out at a constant flow rate of 30µ l/min. in the concentration range of 0.1 to 10 µ M in both the binding phase and the dissociation phase. After each assay, the sensor chip surface was regenerated with 15 µ l of 1.5 M urea. Rate constant values were calculated using analysis soft wear BIA Evaluation 3.0 soft wear after subtracting control surface (bovine serum albumin) using Langmuir 1: 1 binding model by four independent experiments.
(In general: In SPR one partner is held on a chip, and binding of the other changes the refractive index at the surface.)

In a further data set the target is T2, L-PGDS (Mus musculus, UniProt O09114).
T2 sequence (O09114 25-189): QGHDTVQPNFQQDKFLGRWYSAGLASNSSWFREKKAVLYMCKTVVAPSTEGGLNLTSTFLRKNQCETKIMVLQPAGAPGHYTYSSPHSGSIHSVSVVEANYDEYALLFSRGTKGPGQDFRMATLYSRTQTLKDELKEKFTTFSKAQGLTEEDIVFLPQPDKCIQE
The experiment in a line: Binding of retinoids to L-PGDS.

Substrate in data set [4]: [H][C@]12C[C@]([H])(OO1)[C@H](C/C=C\CCCC(=O)O)[C@H]2/C=C/[C@@H](O)CCCCC
Put plainly: PGDS activity kinetics of L-PGDS mutants. It is filed as biochemical, mouse. The note with it: other: Km for PGH2, pH=8.0, 25.0 °C. From the text: Since the preparation of recombinant protein having the same PGDS activity as purified wild-type enzyme is easy, Cys^89,186Ala construct was used for this purpose. Various mutants were expressed, purified to homogeneity and L-PGDS activities were compared at pH 8, 9 and 10 (Figure 8) .
After a candidate compound of L-PGDS inhibitor is selected, it is preferably contacted with the enzyme in the presence of the substrate (prostaglandin H2) to confirm an ability of the compound to inhibit the enzyme (see, for example, Shimizu, t., Yamamoto, S., and Hayaishi O. (1979), Purification and Properties of prostaglandin D synthase from rat brain, J. Biol. Chem., 254:5222-5228). The enzyme activity can be measured, for example, as follows:
The substrate [1-^14C]prostaglandin (PG)H2 is synthesized by reacting [1^-14C]arachidonic acid with cyclooxygenase. Since PGH2 is easily decomposed in an aqueous solution (half life: about 5 minutes), it is evaporated to dryness and stored at low temperature(-80°C). The enzyme reaction is performed by injecting 1 µL of PGH2 solution(acetone or non-volatile diethylenediglycohol solution) with a microsyringe to 49 µ L of 0.1 M phosphate buffer (pH8.0) containing 1 mM dithiothreitol (DTT) and the enzyme. After the reaction at 25 °C for 30 to 60 seconds, the reaction is quenched by the addition of 300 µL of ice-cold mixed solution of ether/methanol/0.1 M citric acid (30:4:1 v/v/v) followed by extraction the substrate and reaction product under acidic condition into ether layer. Subsequently, anhydrous sodium sulfate was added to dehydrate it. An aliquot of organic layer (about 50 µ L) is coated on silica gel thin layer in a low temperature room (4°C) and subjected to silica gel thin layer chromatography in a freezer (-20 °C) (developing solvent: ether/methanol/acetic acid (90:2:1 v/v/v) . After the development, radioactivity of PGD2 fraction and fraction other than it are measured to calculate an enzyme activity based on the conversion ratio to PGD2.
The site-specific mutagenesis was performed using a Quick change site-directed mutagenesis kit (Stratgene, Heiderberg, Germany). The DNA sequence was confirmed by the determination of cycle sequencing by a SequiTherm cycle sequencing kit (Epicentre Technologies, Madison, WI) followed by LI-COR model 4000L automatic DNA sequencer (LI-COR Inc., Lincoln, NE)

From patent EP1574569A1, “THREE-DIMENSIONAL STRUCTURE OF LIPOCALIN-TYPE PROSTAGLANDIN D SYNTHASE AND UTILIZATION OF THE SAME” (RIKEN, priority 2002, dated 2004) come the findings set out here.

H-PGDS, sequence (O60760 whole entry, species assumed): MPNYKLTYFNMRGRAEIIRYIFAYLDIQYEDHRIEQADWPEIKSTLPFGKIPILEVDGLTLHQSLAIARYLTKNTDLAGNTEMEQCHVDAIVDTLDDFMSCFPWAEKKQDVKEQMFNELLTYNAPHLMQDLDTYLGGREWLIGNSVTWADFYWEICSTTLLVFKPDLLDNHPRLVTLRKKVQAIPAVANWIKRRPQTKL
hematopoietic PGD Synthase (H-PGDS), sequence (O60760 whole entry, species assumed): as above

For the molecule `C1=Cc2ccccc2C(=C2CCN(CCCCc3nn[nH]n3)CC2)c2ccccc21` [AT-56, 4-dibenzo(a,d)cyclohepten-5-ylidene-1-(4-(2H-tetrazole-5-yl)butyl)piperidine], the “inhibition of H-PGDS (in words)” value in data set [1] is given as “does not inhibit”. For the same molecule, in data set [2], the “inhibition of PGD2 production by A23187 stimulation (in words)” value is listed as “dose-dependently inhibited”.
A word on the Kd: it is the constant that tells how readily two partners part at equilibrium. A low value points to a tighter complex. For the molecule `CCCCC[C@H](O)/C=C/[C@H]1C(=O)C[C@H](O)[C@@H]1C/C=C\CCCC(=O)O` [PGD2], the “affinity of H-PGDS to PGD2 (in words)” value at H-PGDS is given as “does not show high affinity”. Moreover, in data set [3] (Langmuir 1:1 binding model), the kon is recorded as 1.24x10^3 ± 37 M^-1sec^-1. The same molecule came in with a Kd in data set [3] (Langmuir 1:1 binding model, four independent experiments) of 89.4 ± 3.4 nM.
For the molecule `CC1=C(/C=C/C(C)=C/C=C/C(C)=C/C=O)C(C)(C)CCC1` [retinal], the “binding to L-PGDS (in words)” value at L-PGDS is reported as “binds”.
As to `CCCCC[C@H](O)/C=C/[C@H]1[C@H](O)CC(=O)[C@@H]1C/C=C\CCCC(=O)O` [PGE2], the “binding to L-PGDS (in words)” value in data set [3] is listed as “Neither PGE2 nor PGF2α is bound”.
Still for that read-out and setting: the value for `CCCCC[C@H](O)/C=C/[C@@H]1[C@@H](C/C=C\CCCC(=O)O)[C@@H](O)C[C@H]1O` [PGF2α] was “Neither PGE2 nor PGF2α is bound”.

B1: mouse L-PGDS, Wild Type(C65), Cys^89,186Ala construct, SEQ ID NO:1 (Mus musculus; C186A/C89A) (protein)
chain: QGHDTVQPNFQQDKFLGRWYSAGLASNSSWFREKKAVLYMCKTVVAPSTEGGLNLTSTFLRKNQAETKIMVLQPAGAPGHYTYSSPHSGSIHSVSVVEANYDEYALLFSRGTKGPGQDFRMATLYSRTQTLKDELKEKFTTFSKAQGLTEEDIVFLPQPDKAIQE
Broadly, the Km is the substrate concentration at which the rate is half of its maximum. Turning to B1, in data set [4], the Km was determined as 13 µM and the kcat/Km was 2.38 µM^-1Min^-1.

B2: mouse L-PGDS mutant F83I (Phe^83Ile) in Cys^89,186Ala construct (Mus musculus; C186A/C89A/F83I) (protein)
chain: QGHDTVQPNFQQDKFLGRWYSAGLASNSSWFREKKAVLYMCKTVVAPSTEGGLNLTSTILRKNQAETKIMVLQPAGAPGHYTYSSPHSGSIHSVSVVEANYDEYALLFSRGTKGPGQDFRMATLYSRTQTLKDELKEKFTTFSKAQGLTEEDIVFLPQPDKAIQE
For the molecule B2, in data set [4], the Km is recorded as 15 µM and the kcat/Km was determined as 4.47 µM^-1Min^-1.

B3: mouse L-PGDS mutant S81A (Ser^81Ala) in Cys^89,186Ala construct (Mus musculus; C186A/C89A/S81A) (protein)
chain: QGHDTVQPNFQQDKFLGRWYSAGLASNSSWFREKKAVLYMCKTVVAPSTEGGLNLTATFLRKNQAETKIMVLQPAGAPGHYTYSSPHSGSIHSVSVVEANYDEYALLFSRGTKGPGQDFRMATLYSRTQTLKDELKEKFTTFSKAQGLTEEDIVFLPQPDKAIQE
As for B3, in data set [4], the Km came to 12 µM and the kcat/Km was determined as 0.50 µM^-1Min^-1.

B4: mouse L-PGDS mutant K92E (Lys^92Glu) in Cys^89,186Ala construct (Mus musculus; C186A/C89A/K92E) (protein)
chain: QGHDTVQPNFQQDKFLGRWYSAGLASNSSWFREKKAVLYMCKTVVAPSTEGGLNLTSTFLRKNQAETEIMVLQPAGAPGHYTYSSPHSGSIHSVSVVEANYDEYALLFSRGTKGPGQDFRMATLYSRTQTLKDELKEKFTTFSKAQGLTEEDIVFLPQPDKAIQE
In the case of B4, in data set [4], the Km is recorded as 14 µM and the kcat/Km was determined as 5.71 µM^-1Min^-1.

B5: mouse L-PGDS mutant R85E (Arg^85Glu) in Cys^89,186Ala construct (Mus musculus; C186A/C89A/R85E) (protein)
chain: QGHDTVQPNFQQDKFLGRWYSAGLASNSSWFREKKAVLYMCKTVVAPSTEGGLNLTSTFLEKNQAETKIMVLQPAGAPGHYTYSSPHSGSIHSVSVVEANYDEYALLFSRGTKGPGQDFRMATLYSRTQTLKDELKEKFTTFSKAQGLTEEDIVFLPQPDKAIQE
B5: in data set [4], the Km is 7 µM and the kcat/Km worked out at 4.86 µM^-1Min^-1.

B6: mouse L-PGDS mutant S45A (Ser^45Ala) in Cys^89,186Ala construct (Mus musculus; C186A/C89A/S45A) (protein)
chain: QGHDTVQPNFQQDKFLGRWYAAGLASNSSWFREKKAVLYMCKTVVAPSTEGGLNLTSTFLRKNQAETKIMVLQPAGAPGHYTYSSPHSGSIHSVSVVEANYDEYALLFSRGTKGPGQDFRMATLYSRTQTLKDELKEKFTTFSKAQGLTEEDIVFLPQPDKAIQE
Consider B6, for which, in data set [4], the Km was 11 µM.

B7: mouse L-PGDS mutant T147A (Thr^147Ala) in Cys^89,186Ala construct (Mus musculus; C186A/C89A/T147A) (protein)
chain: QGHDTVQPNFQQDKFLGRWYSAGLASNSSWFREKKAVLYMCKTVVAPSTEGGLNLTSTFLRKNQAETKIMVLQPAGAPGHYTYSSPHSGSIHSVSVVEANYDEYALLFSRGTKGPGQDFRMAALYSRTQTLKDELKEKFTTFSKAQGLTEEDIVFLPQPDKAIQE
Consider B7, for which, in data set [4], the Km is listed as 19 µM and the kcat/Km turned out to be 0.95 µM^-1Min^-1.
